The target of the experiment is T1, Human secretagogin (SEQ ID NO: 1, containing an amino terminal … FLIS tag) (human, UniProt O76038 1-276).
T1 construct: It was biotinylated for the screening ELISA and unlabeled in the sandwich screens; also called Secretagogin protein; human secretagogin-biotin
T1 sequence: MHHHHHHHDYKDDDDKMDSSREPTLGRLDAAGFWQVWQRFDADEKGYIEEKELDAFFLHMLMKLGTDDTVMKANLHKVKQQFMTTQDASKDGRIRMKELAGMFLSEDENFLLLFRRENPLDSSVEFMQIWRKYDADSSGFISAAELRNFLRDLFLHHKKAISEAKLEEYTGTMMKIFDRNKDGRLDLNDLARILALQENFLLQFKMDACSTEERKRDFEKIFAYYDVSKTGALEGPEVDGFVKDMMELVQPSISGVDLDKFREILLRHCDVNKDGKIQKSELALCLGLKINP
In words: method not stated.

The values that follow come from patent US20100267060A1 (BIOSITE, published 2010).

B1: ST102Z X1ZM 01611 (antibody, V domains shown)
VH: QVQLQQSRPELVRPGASVKISCKAPGYIFTSHWMQWVRQRPGQGLEWIGEIFPGSGSTFYNEKFKDKATLTVDTSSSTAYMQLSSLTSEDSAVYFCARTDYYSSAMDYWGQGTSVTVSS
VL: ETTVTQSPSSLSMAIGEKVTIRCITHTDIDDDMNWYQQKPGEPPKLLISEGNTLRPGVPSRFSSSGFGTDFFFTIENMLSEDVADYYCLQSDTLPLTFGAGTKLELK
notes: Mouse monoclonal antibody from phage-display library ST102ZX1, expressed in E. coli from a plasmid vector
Regarding B1, the Ka is ≥ 1e+10 M⁻¹.

B2: ST108Z R1ZM 02871 (antibody, V domains shown)
VH: EVQLQQSGPELVKPGTSVKMSCKASGYSFTDYNMHWVKQSHGKSLEWIGYVDPNIGGTSYNPKFKGKATLTVNKSSSTAYMELRSLTSEDSAVYFCARYPNYSGRRYLFAMDYWGQGTSVTVSS
VL: EIVLTQSPAIMSASPGEKVTLTCSASSSISSSYFYWYRQKPGSSPQLWIYGTSNLASGVPARFSGSGSGTSYSLTISSMEAEDAASYFCHQWSSYPLTFGAGTKLELK
notes: Mouse monoclonal antibody from phage-display library ST108ZR1, expressed in E. coli from a plasmid vector
For the molecule B2, the Ka was ≥ 1e+10 M⁻¹.
